From patent US20220025021A1 (BETH ISRAEL DEACONESS MEDICAL CENTER, published 2022)

Key:
Assay in all cases: cell-based or functional assay
[1] = biological target: HIV-1 envelope glycoprotein of pseudovirus CNE52 (HIV-1)
[2] = biological target: HIV-1 envelope glycoprotein of pseudovirus DU172.17 (HIV-1)
[3] = biological target: HIV-1 envelope glycoprotein of pseudovirus RHPA4259.7 (HIV-1)
[4] = biological target: HIV-1 envelope glycoprotein of pseudovirus BB1012-11.TC21 (HIV-1)
[5] = biological target: HIV-1 envelope glycoprotein of pseudovirus 0260.v5.c36 (HIV-1)
[6] = biological target: HIV-1 envelope glycoprotein of pseudovirus SC422661.8 (HIV-1)

Binder | IC50 (neutralization in TZM.bl cells) [1] [µg/mL] | IC80 (neutralization in TZM.bl cells) [1] [µg/mL] | IC50 (neutralization in TZM.bl cells) [2] [µg/mL] | IC80 (neutralization in TZM.bl cells) [2] [µg/mL] | IC50 (neutralization in TZM.bl cells) [3] [µg/mL] | IC80 (neutralization in TZM.bl cells) [3] [µg/mL] | IC50 (neutralization in TZM.bl cells) [4] [µg/mL] | IC80 (neutralization in TZM.bl cells) [4] [µg/mL] | IC50 (neutralization in TZM.bl cells) [5] [µg/mL] | IC80 (neutralization in TZM.bl cells) [5] [µg/mL] | IC50 (neutralization in TZM.bl cells) [6] [µg/mL] | IC80 (neutralization in TZM.bl cells) [6] [µg/mL]
MS-112 (antibody) VH: not shown VL: DFVLTQSPHSLSVTPGEPASISCKSSHSLIHGDRNNYLAWYVQKPGRSPQLLIYLASSRASGVPDRFSGSGSGKDFTLKISRVEAEDVGTYYCMQGRESPWTFGQGTKVDIKRTVAAPSVFIFPPSDEQLKSGTASVVCLLNNFYPREAKVQWKVDNALQSGNSQESVTEQDSKDSTYSLSSTLTLSKADYEKHKVYACEVTHQGLSSPVTKSFNRGEC | 0.133 | 1.16 | 1.77 | 4.91 | 0.195 | 0.661 | 0.032 | 0.129 | 0.022 | 0.059 | 0.275 | 1.44
MS-114 (antibody) VH: not shown VL: DIVLTQSPLSLSVTPGEPASISCKSSHSLIHGDRNNYLAWYVQKPGRSPQLLIYLASSRASGVPDRFSGSGSDKDFTLKISRVEAEDVGTYYCMQGRESPWTFGQGTKVDIKRTVAAPSVFIFPPSDEQLKSGTASVVCLLNNFYPREAKVQWKVDNALQSGNSQESVTEQDSKDSTYSLSSTLTLSKADYEKHKVYACEVTHQGLSSPVTKSFNRGEC | 0.444 | 3.61 | 1.66 | 7.74 | 0.237 | 1.24 | 0.033 | 0.136 | 0.03 | 0.105 | 0.236 | 2.21
MS-96 (antibody) VH: not shown VL: DIVLTQSPHSLSVTPGESASISCKSSHSLIHGDRNNYLAWYVQKPGRSPQLLIYLASSRASGVPDRFSGSGSDKDFTLKISRVEAEDVGTYYCMQGRESPWTFGQGTKVDIKRTVAAPSVFIFPPSDEQLKSGTASVVCLLNNFYPREAKVQWKVDNALQSGNSQESVTEQDSKDSTYSLSSTLTLSKADYEKHKVYACEVTHQGLSSPVTKSFNRGEC | 0.543 | 5.36 | 3.58 | 13 | 0.252 | 1.14 | 0.047 | 0.195 | 0.026 | 0.093 | 0.397 | 2.82
MS-115 (antibody) VH: not shown VL: DIVLTQSPLSLSVTPGESASISCKSSHSLIHGDRNNYLAWYVQKPGRSPQLLIYLASSRASGVPDRFSGSGSGKDFTLKISRVEAEDVGTYYCMQGRESPWTFGQGTKVDIKRTVAAPSVFIFPPSDEQLKSGTASVVCLLNNFYPREAKVQWKVDNALQSGNSQESVTEQDSKDSTYSLSSTLTLSKADYEKHKVYACEVTHQGLSSPVTKSFNRGEC | 0.489 | 5.46 | 1.83 | 5.04 | 0.237 | 0.647 | 0.024 | 0.106 | 0.025 | 0.067 | 0.202 | 1.03
MS-94 (antibody) VH: not shown VL: DIVLTQSPHSLSVTPGEPASISCKSSHSLIHGDRNNYLAWYVQKPGRSPQLLIYLASSRASGVPDRFSGSGSDKDFTLKISRVETEDVGTYYCMQGRESPWTFGQGTKVDIKRTVAAPSVFIFPPSDEQLKSGTASVVCLLNNFYPREAKVQWKVDNALQSGNSQESVTEQDSKDSTYSLSSTLTLSKADYEKHKVYACEVTHQGLSSPVTKSFNRGEC | 0.455 | 5.18 | 3.03 | 11.2 | 0.358 | 0.985 | 0.055 | 0.146 | 0.027 | 0.095 | 0.315 | 1.23
MS-93 (antibody) VH: not shown VL: DIVLTQSPLSLSVTPGESASISCKSSHSLIHGDRNNYLAWYVQKPGRSPQLLIYLASSRASGVPDRFSGSGSDKDFTLKISRVETEDVGTYYCMQGRESPWTFGQGTKVDIKRTVAAPSVFIFPPSDEQLKSGTASVVCLLNNFYPREAKVQWKVDNALQSGNSQESVTEQDSKDSTYSLSSTLTLSKADYEKHKVYACEVTHQGLSSPVTKSFNRGEC | 0.636 | 5.6 | 3.24 | 9.14 | 0.358 | 1.6 | 0.034 | 0.118 | 0.034 | 0.116 | 0.333 | 2.71
MS-113 (antibody) VH: not shown VL: DIVLTQSPLSLSVTPGEPASISCKSSHSLIHGDRNNYLAWYVQKPGRSPQLLIYLASSRASGVPDRFSGSGSGKDFTLKISRVETEDVGTYYCMQGRESPWTFGQGTKVDIKRTVAAPSVFIFPPSDEQLKSGTASVVCLLNNFYPREAKVQWKVDNALQSGNSQESVTEQDSKDSTYSLSSTLTLSKADYEKHKVYACEVTHQGLSSPVTKSFNRGEC | 0.502 | 5.04 | 2.22 | 8.27 | 0.206 | 0.696 | 0.026 | 0.109 | 0.026 | 0.092 | 0.354 | 2.12
MS-95 (antibody) VH: not shown VL: DIVLTQSPHSLSVTPGESASISCKSSHSLIHGDRNNYLAWYVQKPGRSPQLLIYLASSRASGVPDRFSGSGSGKDFTLKISRVETEDVGTYYCMQGRESPWTFGQGTKVDIKRTVAAPSVFIFPPSDEQLKSGTASVVCLLNNFYPREAKVQWKVDNALQSGNSQESVTEQDSKDSTYSLSSTLTLSKADYEKHKVYACEVTHQGLSSPVTKSFNRGEC | 0.567 | 5.05 | 1.97 | 7.07 | 0.208 | 0.69 | 0.044 | 0.117 | 0.022 | 0.06 | 0.433 | 2.88
MS-116 (antibody) VH: not shown VL: DIVLTQSPHSLSVTPGEPASISCKSSHSLIHGDRNNYLAWYVQKPGRSPQLLIYLASSRASGVPDRFSGSGSGKDFTLKISRVEAEDVGTYYCMQGRESPWTFGQGTKVDIKRTVAAPSVFIFPPSDEQLKSGTASVVCLLNNFYPREAKVQWKVDNALQSGNSQESVTEQDSKDSTYSLSSTLTLSKADYEKHKVYACEVTHQGLSSPVTKSFNRGEC | 0.321 | 3.09 | 1.97 | 6.71 | 0.187 | 0.663 | 0.03 | 0.139 | 0.024 | 0.067 | 0.185 | 1.06
MS-117 (antibody) VH: not shown VL: DFVLTQSPLSLSVTPGEPASISCKSSHSLIHGDRNNYLAWYVQKPGRSPQLLIYLASSRASGVPDRFSGSGSGKDFTLKISRVEAEDVGTYYCMQGRESPWTFGQGTKVDIKRTVAAPSVFIFPPSDEQLKSGTASVVCLLNNFYPREAKVQWKVDNALQSGNSQESVTEQDSKDSTYSLSSTLTLSKADYEKHKVYACEVTHQGLSSPVTKSFNRGEC | 0.206 | 1.73 | 1.91 | 6.49 | 0.201 | 0.715 | 0.03 | 0.099 | 0.021 | 0.057 | 0.168 | 1.33
MS-118 (antibody) VH: not shown VL: DIVLTQSPLSLSVTPGEPASISCKSSHSLIHGDRNNYLAWYVQKPGRSPQLLIYLASSRASGVPDRFSGSGSGKDFTLKISRVEAEDVGTYYCMQGRESPWTFGQGTKVDIKRTVAAPSVFIFPPSDEQLKSGTASVVCLLNNFYPREAKVQWKVDNALQSGNSQESVTEQDSKDSTYSLSSTLTLSKADYEKHKVYACEVTHQGLSSPVTKSFNRGEC | 0.42 | 3.4 | 2.12 | 8.29 | 0.164 | 0.785 | 0.036 | 0.117 | 0.019 | 0.069 | 0.244 | 2.05
